Blank lines part the entries; values can stand above or below the molecule they belong to. No end group written: not given here.
Legend:
Caulobacter ClpS = Caulobacter ClpS (Caulobacter vibrioides, UniProt Q9A5I0); assay: ClpS binding assay by fluorescence anisotropy; design: species or system Caulobacter crescentus; details: Fig. 3B
[1] = target: T1, C. crescentus ClpS residues 35-119 (Caulobacter crescentus, UniProt Q9A5I0 35-119); assay: fluorescence polarisation
T1 sequence (looked up): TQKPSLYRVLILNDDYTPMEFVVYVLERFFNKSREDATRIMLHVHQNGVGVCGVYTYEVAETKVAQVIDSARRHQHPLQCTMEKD

[2] = target: T1, C. crescentus ClpS residues 35-119; assay: crystal structure
[3] = target: peptides with Tyr, Trp, Phe, or Leu at the N-terminus; assay: fluorescence polarisation

Molecule: Xxx-Leu-Phe-Val-Gln-Tyr-His6-Cys [Tyr peptide]
affinity for Caulobacter ClpS (in words) (Caulobacter ClpS): sub-micromolar

Kd [1]: ~400 nM
B1: fluorescein-labelled N-end rule peptide Tyr-Leu-Phe-Val-Gln-Tyr-His6-Cys (peptide)
peptide: YLFVQYHHHHHHC(fluorescein maleimide)

binding result [2]: binds
B2: N-end rule decapeptide Tyr-Leu-Phe-Val-Gln-Arg-Asp-Ser-Lys-Glu (peptide)
peptide: YLFVQRDSKE

Kd [3]: 150 to 500 nM
B3: C. crescentus ClpS residues 35-119 (domain or fragment)
chain: TQKPSLYRVLILNDDYTPMEFVVYVLERFFNKSREDATRIMLHVHQNGVGVCGVYTYEVAETKVAQVIDSARRHQHPLQCTMEKD

binding result [1]: binds
B4: fluorescein-labelled N-end rule peptide Trp-Leu-Phe-Val-Gln-Tyr-His6-Cys (peptide)
peptide: WLFVQYHHHHHHC(fluorescein maleimide)

binding result [1]: binds
B5: fluorescein-labelled N-end rule peptide Leu-Leu-Phe-Val-Gln-Tyr-His6-Cys (peptide)
peptide: LLFVQYHHHHHHC(fluorescein maleimide)

binding result [1]: binds
B6: fluorescein-labelled N-end rule peptide Phe-Leu-Phe-Val-Gln-Tyr-His6-Cys (peptide)
peptide: FLFVQYHHHHHHC(fluorescein maleimide)

KM of ClpAP degradation of Tyr-GFP with the ClpS variant (900 nM), fold increase (Tyr-GFP): 2 fold
B7: E. coli ClpS D36A (natural protein)
chain: MGKTNDWLDFDQLAEEKVRDALKPPSMYKVILVNDAYTPMEFVIDVLQKFFSYDVERATQLMLAVHYQGKAICGVFTAEVAETKVAMVNKYARENEHPLLCTLEKA

KM of ClpAP degradation of Tyr-GFP with the ClpS variant (900 nM), fold increase (Tyr-GFP): 5 fold
B8: E. coli ClpS H66A (natural protein)
chain: MGKTNDWLDFDQLAEEKVRDALKPPSMYKVILVNDDYTPMEFVIDVLQKFFSYDVERATQLMLAVAYQGKAICGVFTAEVAETKVAMVNKYARENEHPLLCTLEKA

— paper PMC3114436 (Molecular cell, 2008)
